{"source": "patent US20220062415A1", "about": "“Methods of Treating Multiple Myeloma” (Janssen Biotech, Inc., priority 2018, published 2022)", "key": {"[1]": {"assay": "Phase 3 Study: daratumumab serum pharmacokinetics", "type": "in vivo, human", "conditions": "daratumumab 16 mg/kg in D-VMP", "from_the_text": "(§1) Clinical pharmacology information provided herein focuses on data from subjects with evaluable pharmacokinetic data treated with D-VMP in the Phase 3 Study (n=342), and supportive information derived from the Phase 1b Study in the cohort of subjects treated with D-VMP having evaluable pharmacokinetic data (n=11). In addition, an updated population pharmacokinetics (PPK) analysis including data from the Phase 3 and Phase 1b Studies and exposure-response (efficacy and safety) analyses including data from Phase 3 Study were conducted."}, "[2]": {"conditions": "in vivo", "from_the_text": "The first subject in this cohort started treatment with D-VMP. Subjects in the D-VMP cohort of the Phase 1b Study received treatment for a maximum of 9 cycles. Long-term follow-up for this cohort continued until death, loss to follow up, withdrawal of consent, or study end, whichever occurred first. The primary objective for the Phase 1b Study was to evaluate safety and tolerability of the combination regimen. Efficacy assessments (primary efficacy endpoint, overall response rate (ORR)) were performed per International Myeloma Working Group (IMWG) guidelines (Kumar S, et al. Lancet Oncol. 2016;17(8):e328-e346, hereby incorporated by reference in its entirety), and a computerized, validated algorithm as described above was utilized for determining response based on IMWG criteria.\nas §1"}, "[3]": {"assay": "Pooled infusion-related reaction analysis, 1,166 subjects treated with daratumumab 16 mg/kg IV", "type": "in vivo, human"}, "[4]": {"conditions": "in vivo", "remark": "listed apart in the source"}, "[5]": {"conditions": "cited from earlier work"}, "[6]": {"conditions": "mean±SD, cited from earlier work"}}, "note": "Where two headings read alike, the source gives them in different places.", "data": [{"substance": "daratumumab", "values": [{"measurement": "mean end-of-infusion concentration following the first dose", "setting": "[1]", "value": 266.7, "unit": "µg/mL"}, {"measurement": "mean end-of-infusion concentration following the first dose", "setting": "[2]", "value": 332.2, "unit": "µg/mL"}, {"measurement": "Grade 4 IRRs", "setting": "[3]; 2 of 1,166 subjects", "value": 0.2, "unit": "%"}, {"measurement": "incidence of any grade IRR", "setting": "[3]; first infusion, pooled 1,166 subjects", "value": 40, "unit": "%"}, {"measurement": "incidence of infusion modification due to IRRs", "setting": "[3]; pooled", "value": 37, "unit": "%"}, {"measurement": "incidence of any grade IRR", "setting": "[3]; second infusion, pooled", "value": 2, "unit": "%"}, {"measurement": "subjects with a Grade 3 IRR", "setting": "[3]; second or subsequent infusion, pooled", "value": "< 1", "unit": "%"}, {"measurement": "incidence of any grade IRR", "setting": "[3]; subsequent infusions, pooled", "value": 4, "unit": "%"}, {"measurement": "model-derived half-life associated with the CL", "setting": "[4]; human", "value": "approximately 22.1±9.7 days"}, {"measurement": "estimated Vi value", "setting": "[4]", "value": "approached plasma volume"}, {"measurement": "time to apparent steady state", "setting": "[4]", "value": "approximately 5 months"}, {"measurement": "mean maximum trough concentration", "setting": "[5]; after 8 weekly doses, monotherapy", "value": 573.5, "unit": "µg/mL"}, {"measurement": "mean end-of-infusion concentration following the first dose", "setting": "[5]; daratumumab monotherapy, Phase 2 study", "value": 312.5, "unit": "µg/mL"}, {"measurement": "increase in daratumumab compared with the first dose", "setting": "[5]; end of 8 weekly doses of monotherapy", "value": 2.9, "unit": "fold"}, {"measurement": "half-life", "setting": "[6]; monotherapy study data", "value": "18 ± 9", "unit": "days"}, {"measurement": "half-life", "setting": "[6]; previous combination therapy study data", "value": "23.3 ± 11.8", "unit": "days"}]}]}
